Source: patent US20240352438A1, “MEANS AND METHODS FOR DETOXIFYING OCHRATOXIN A” (DSM Austria GmbH, priority 2021, published 2024)
Positions count from the first letter of the chain named.

B1: 55 (protein)
chain: MTTRTRILTAFLSLLAANACAADAAPAAPHTVVLRAARMFDGASGKLVDHPQLTIVGNKIVRIAQGDKAEVPAGAEVVDLGDATLLPGFIDAHVHLSGQSSDNWYGDFFDNMMRFPAEQALYGAYYARITLEAGFTSVRDVGSTDWVALGLRNAIDAGKVPGPRMLVSNYAVGSTGGHADQDPIPPHKLPLAGPLQGVCNGPEECRAAVRYQIKYGANVIKFMPSGGVVSLSDPVDAPELSQDEMNAVIGESHAWGRKVAAHAHGDKAAKMAVAAGVDSIEHGSFIEDDTLRAMKAKNVYLVPTISAIAHVEEKIGTFPPVIAEKGRAAAAHLRQTFRHAVQIGVPIALGTDAGVGAHGSNAREFRYMVENGLTPAQALLAGTANAARLLGTFDRVGTLEAGKLADVVAVPGNPIADITVTERPLFVMKDGVVVRRDAVR
modifications: exemplary polypeptide
B2: 58 (protein)
chain: B1 chain with V229L, A307G
modifications: exemplary polypeptide
B3: 71 (protein)
chain: B1 chain with V229L, H264Q
modifications: exemplary polypeptide
B4: 59 (protein)
chain: B1 chain with V229L, I308V
modifications: exemplary polypeptide
B5: 61 (protein)
chain: B1 chain with V229L, V355T
modifications: exemplary polypeptide
B6: 48 (protein)
chain: B1 chain with F109A, V229L
modifications: exemplary polypeptide
B7: 77 (protein)
chain: B1 chain with V229L, A307G, V311A
modifications: exemplary polypeptide
B8: 67 (protein)
chain: B1 chain with V229L, V355A
modifications: exemplary polypeptide
B9: 69 (protein)
chain: B1 chain with Q181M, V229L
modifications: exemplary polypeptide
B10: 63 (protein)
chain: B1 chain with V229L, E239Q
modifications: exemplary polypeptide
B11: 50 (protein)
chain: B1 chain with A171P, V229L
modifications: exemplary polypeptide
B12: 57 (protein)
chain: B1 chain with V229L, A307S
modifications: exemplary polypeptide
B13: 49 (protein)
chain: B1 chain with T144A, V229L
modifications: exemplary polypeptide
B14: 72 (protein)
chain: B1 chain with M223C, V229L
modifications: exemplary polypeptide
B15: 73 (protein)
chain: B1 chain with M223A, V229L
modifications: exemplary polypeptide
B16: 80 (protein)
chain: B1 chain with V229L, A307G, V355A
modifications: exemplary polypeptide
B17: 70 (protein)
chain: B1 chain with Q181L, V229L
modifications: exemplary polypeptide
B18: 68 (protein)
chain: B1 chain with V229L, A357P
modifications: exemplary polypeptide
B19: 60 (protein)
chain: B1 chain with V229L, V311T
modifications: exemplary polypeptide
B20: 62 (protein)
chain: B1 chain with V229L, V235P
modifications: exemplary polypeptide
B21: 56 (protein)
chain: B1 chain with V229M
modifications: exemplary polypeptide
B22: 64 (protein)
chain: B1 chain with S143E, V229L
modifications: exemplary polypeptide
B23: 66 (protein)
chain: B1 chain with V229L, V311A
modifications: exemplary polypeptide

Assay: Thermostability assay: residual OTA detoxification activity after 10 min incubation at 45-99° C. (T50)
Assay type: physicochemical
Conditions: 0.1 mg/mL protein in 20 mM Tris-HCl pH 7.5, residual OTA detoxification activity relative to 4° C. reference aliquot
How it was run: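 Purified enzyme at 0.1 mg/mL in 20 mM Tris-HCl pH 7.5 was heated 10 min at 45–99 °C, then held at 4 °C. Residual OTA detoxification activity was expressed relative to an aliquot kept at 4 °C throughout; T50 is the temperature range giving 50% activity loss.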

Molecule	T50 (temperature at which 50% of the initial activity was maintained)
B1	64-66 °C
B2	72 °C
B3	70.7-72.6 °C
B4	68-70 °C
B5	66-68 °C
B6	<63.2 °C
B7	65.3-66.9 °C
B8	<63.2 °C
B9	<63.2 °C
B10	72-74 °C
B11	64 °C
B12	68-70 °C
B13	68-70 °C
B14	74.4-77.0 °C
B15	74.4-77.0 °C
B16	64.0-65.3 °C
B17	<63.2 °C
B18	70.7-72.6 °C
B19	66-68 °C
B20	63-64 °C
B21	66-68 °C
B22	63-64 °C
B23	65.3-66.9 °C

Assay: OTA detoxification activity assay (specific activity, fluorescence reduction ex/em 390/450 nm)
Assay type: biochemical
Conditions: pH 6.0; SEQ ID NO: 1 = 100%
How it was run: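 Recombinant enzyme preparation with 200 ng/mL OTA in 100 mM sodium phosphate, at pH 6.0 and pH 7.5, 37° C. Degradation followed as the fall in fluorescence at ex/em 390/450 nm. Specific activity taken from the initial linear slope; one unit degrades 1 μmol OTA per min at a starting OTA of […].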

Molecule	Specific OTA detoxification activities in % compared to the enzyme of SEQ ID NO: 1, pH 6.0 [%]
B1	27
B2	6
B3	32
B4	69
B5	15
B6	54
B7	5
B8	51
B9	102
B10	43
B11	81
B12	15
B13	76
B14	34
B15	20
B16	7
B17	80
B18	70
B19	23
B20	35
B21	32
B22	36
B23	15

Same assay, conditions: pH 7.5; SEQ ID NO: 1 = 100%

Molecule	Specific OTA detoxification activities in % compared to the enzyme of SEQ ID NO: 1, pH 7.5 [%]
B1	54
B2	8
B3	17
B4	333
B5	34
B6	102
B7	3
B8	28
B9	75
B10	112
B11	257
B12	16
B13	179
B14	46
B15	23
B16	3
B17	77
B18	67
B19	61
B20	26
B21	87
B22	146
B23	15
